The source of these data is PMC6102255, “EPO does not promote interaction between the erythropoietin and beta-common receptors” (Scientific Reports, 2018).

Series [1] deals with extracellular domains of the erythropoietin receptor (EPOR), in-house purified (UniProt P19235). Description: MST; EPOR labelled with DyLight 650 (30 nM), unlabelled EPOR titrated (0.05-1700 nM); 50 mM Tris, 10 mM MgCl2, 150 mM NaCl, 0.05% Tween 20, pH 7.5; 60% laser power; homodimer to monomers, no EPO.
Series [2] deals with the molecule itself. The series can be described thus: AUC; sedimentation velocity, 20 °C, 50,000 rpm, 10 mM HEPES, 500 mM NaCl pH 7.2; single proteins (EPO 3 μM; EPOR 1.5, 3, 6 μM; βc 0.75, 1.5, 3 μM) and mixtures of two (EPO + EPOR; βc + EPOR).

Regarding “extracellular domains of the erythropoietin receptor (EPOR), in-house purified (from UniProt P19235 25-250) (domain or fragment)”, the Kd in series [1] came out at 0.166 µM.

B1: extracellular regions of the beta-common (βc) receptor, in-house purified (domain or fragment, UniProt P32927 17-443, looked up)
chain: WERSLAGAEETIPLQTLRCYNDYTSHITCRWADTQDAQRLVNVTLIRRVNEDLLEPVSCDLSDDMPWSACPHPRCVPRRCVIPCQSFVVTDVDYFSFQPDRPLGTRLTVTLTQHVQPPEPRDLQISTDQDHFLLTWSVALGSPQSHWLSPGDLEFEVVYKRLQDSWEDAAILLSNTSQATLGPEHLMPSSTYVARVRTRLAPGSRLSGRPSKWSPEVCWDSQPGDEAQPQNLECFFDGAAVLSCSWEVRKEVASSVSFGLFYKPSPDAGEEECSPVLREGLGSLHTRHHCQIPVPDPATHGQYIVSVQPRRAEKHIKSSVNIQMAPPSLNVTKDGDSYSLRWETMKMRYEHIDHTFEIQYRKDTATWKDSKTETLQNAHSMALPALEPSTRYWARVRVRTSRTGYNGIWSEWSEARSWDTESVLPMW
modifications: biotin (EZ link sulfo-NHS biotin) when immobilised in SPR; unmodified otherwise
notes: beta common receptor (βc, shared subunit of the GM-CSF, IL-3 and IL-5 receptors), extracellular regions; Used in SEC, MST, SPR and AUC; Plasmid donated by Dr. Timothy Hercus; purification details are in the Supplementary data; also called βc homodimer; CD131
Consider B1, for which the “stoichiometry N” value in series [2] was determined as 2.

By Kd is commonly meant the concentration at which binding is half-saturated. Higher therefore signals weaker binding. As a reminder, the stoichiometry N is the number of molecules, sites or subunits per partner or assembly.
